Experimental data reported in patent publication US20180296689A1.
One block for each substance: values may come before it.

Tests used:
[1] = target: Human neonatal receptor (FcRn) (human) (UniProt P55899); assay: SPR (BIACore), low density FcRn biosensor chip, three runs of five dilutions
[2] = target: TROP-2 (EGP-1), human, on tumor cell lines (human) (UniProt P09758); assay: cell binding on TROP-2-positive PC-3 human prostate carcinoma cells, three separate occasions
[3] = target: CD74 (invariant chain, Ii), human, on tumor cell lines (human) (UniProt P04233); assay: flow cytometry, surface and cytoplasmic (permeabilized), A-375 cells
Chain of CD74 (invariant chain, Ii), human, on tumor cell lines (human) (P04233 whole entry, change not shown): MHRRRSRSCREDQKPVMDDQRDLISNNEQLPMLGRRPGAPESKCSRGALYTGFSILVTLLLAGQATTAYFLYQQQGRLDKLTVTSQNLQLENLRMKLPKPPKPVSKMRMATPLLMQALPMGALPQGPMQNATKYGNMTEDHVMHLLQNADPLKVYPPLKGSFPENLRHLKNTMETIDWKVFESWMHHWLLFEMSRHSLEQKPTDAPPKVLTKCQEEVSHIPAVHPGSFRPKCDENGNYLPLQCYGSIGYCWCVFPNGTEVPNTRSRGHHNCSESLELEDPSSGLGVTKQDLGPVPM

[4] = target: CD74 (invariant chain, Ii), human, on tumor cell lines (human) (UniProt P04233); assay: flow cytometry, surface and cytoplasmic (permeabilized), NCI-N87 cells
[5] = target: CD74 (invariant chain, Ii), human, on tumor cell lines (human) (UniProt P04233); assay: flow cytometry, surface only, Hs746T cells
[6] = target: CD74 (invariant chain, Ii), human, on tumor cell lines (human) (UniProt P04233); assay: flow cytometry, surface and cytoplasmic (permeabilized), Raji cells
[7] = target: CD74 (invariant chain, Ii), human, on tumor cell lines (human) (UniProt P04233); assay: flow cytometry, surface and cytoplasmic (permeabilized), Capan-1 cells
[8] = target: CD74 (invariant chain, Ii), human, on tumor cell lines (human) (UniProt P04233); assay: flow cytometry, surface only, Capan-1 cells
[9] = target: CD74 (invariant chain, Ii), human, on tumor cell lines (human) (UniProt P04233); assay: flow cytometry, surface only, NCI-N87 cells
[10] = target: CD74 (invariant chain, Ii), human, on tumor cell lines (human) (UniProt P04233); assay: flow cytometry, surface only, Raji cells
[11] = target: CD74 (invariant chain, Ii), human, on tumor cell lines (human) (UniProt P04233); assay: flow cytometry, surface only, Hep-G2 cells
[12] = target: CD74 (invariant chain, Ii), human, on tumor cell lines (human) (UniProt P04233); assay: flow cytometry, surface and cytoplasmic (permeabilized), HuH-7 cells
[13] = target: CD74 (invariant chain, Ii), human, on tumor cell lines (human) (UniProt P04233); assay: flow cytometry, surface only, HuH-7 cells
[14] = target: CD74 (invariant chain, Ii), human, on tumor cell lines (human) (UniProt P04233); assay: flow cytometry, surface and cytoplasmic (permeabilized), Hs746T cells
[15] = target: CD74 (invariant chain, Ii), human, on tumor cell lines (human) (UniProt P04233); assay: flow cytometry, surface only, A-375 cells
[16] = target: CD74 (invariant chain, Ii), human, on tumor cell lines (human) (UniProt P04233); assay: cell binding to antigen-positive cells (cell line not given)
[17] = target: CD74 (invariant chain, Ii), human, on tumor cell lines (human) (UniProt P04233); assay: flow cytometry, surface and cytoplasmic (permeabilized), Hep-G2 cells

Chain of TROP-2 (EGP-1), human, on tumor cell lines (human) (P09758 27-323): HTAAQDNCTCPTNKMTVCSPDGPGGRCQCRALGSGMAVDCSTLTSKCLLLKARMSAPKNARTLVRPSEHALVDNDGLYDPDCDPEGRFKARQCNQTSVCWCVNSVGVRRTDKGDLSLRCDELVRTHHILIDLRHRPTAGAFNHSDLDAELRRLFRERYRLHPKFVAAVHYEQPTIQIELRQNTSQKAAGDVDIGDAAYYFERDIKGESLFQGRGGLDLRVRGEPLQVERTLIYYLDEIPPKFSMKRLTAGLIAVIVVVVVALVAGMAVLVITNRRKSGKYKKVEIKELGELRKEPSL
Chain of Human neonatal receptor (FcRn) (human) (P55899 24-297 limits assumed): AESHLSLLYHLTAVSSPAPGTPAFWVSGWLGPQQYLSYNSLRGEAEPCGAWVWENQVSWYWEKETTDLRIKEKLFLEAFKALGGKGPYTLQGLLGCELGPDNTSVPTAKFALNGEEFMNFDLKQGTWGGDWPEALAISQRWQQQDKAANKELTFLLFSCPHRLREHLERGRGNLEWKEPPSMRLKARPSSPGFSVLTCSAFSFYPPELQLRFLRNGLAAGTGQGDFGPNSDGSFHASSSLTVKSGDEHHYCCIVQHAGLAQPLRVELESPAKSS

Kd [1]: 92.4 nM | Kd [2]: 0.658 nM
Substance: IMMU-132 (hRS7-CL2A-SN-38 antibody-drug conjugate)

MFI [3]: 185 MFI | MFI Ratio hLL1:bkgd [3]: 30.8 | MFI [4]: 220 MFI | MFI Ratio hLL1:bkgd [4]: 36.7 | MFI [5]: 17 MFI | MFI Ratio hLL1:bkgd [5]: 2.1 | MFI [6]: 143 MFI | MFI Ratio hLL1:bkgd [6]: 28.6 | MFI [7]: 248 MFI | MFI Ratio hLL1:bkgd [7]: 49.6 | MFI [8]: 22 MFI | MFI Ratio hLL1:bkgd [8]: 1.8 | MFI [9]: 5 MFI | MFI Ratio hLL1:bkgd [9]: 1.3 | MFI [10]: 59 MFI | MFI Ratio hLL1:bkgd [10]: 19.6 | MFI [11]: 9 MFI | MFI Ratio hLL1:bkgd [11]: 1.5 | MFI [12]: 114 MFI | MFI Ratio hLL1:bkgd [12]: 28.5 | MFI [13]: 8 MFI | MFI Ratio hLL1:bkgd [13]: 1.6 | MFI [14]: 144 MFI | MFI Ratio hLL1:bkgd [14]: 28.8 | MFI [15]: 16 MFI | MFI Ratio hLL1:bkgd [15]: 5.3 | Kd [16]: 0.77 nM | MFI [17]: 156 MFI | MFI Ratio hLL1:bkgd [17]: 31.2
Substance: Milatuzumab (hLL1, humanized anti-CD74 IgG1 monoclonal antibody, unconjugated)

Kd [16]: 0.59 nM
Substance: milatuzumab-CL2A-SN-38 conjugate (antibody)

Kd [16]: 0.8 nM
Substance: milatuzumab-CL2E-SN-38 conjugate (antibody)
